Measurements reported in patent US20140286957A1 (Teva, published 2014).
Values joined by “and” are separate entries in the source; they are usually repeats but may differ in a detail not shown here. Equal entries are not always repeated. Where two headings read alike, the source gives them in different places. Values belong to the binder of their own block, whether it stands above or below them.

Columns and labels:
[1] = target: T1, Human CD1d on cells (human, UniProt P15813 20-335); assay: cell-based or functional assay
T1 sequence (looked up): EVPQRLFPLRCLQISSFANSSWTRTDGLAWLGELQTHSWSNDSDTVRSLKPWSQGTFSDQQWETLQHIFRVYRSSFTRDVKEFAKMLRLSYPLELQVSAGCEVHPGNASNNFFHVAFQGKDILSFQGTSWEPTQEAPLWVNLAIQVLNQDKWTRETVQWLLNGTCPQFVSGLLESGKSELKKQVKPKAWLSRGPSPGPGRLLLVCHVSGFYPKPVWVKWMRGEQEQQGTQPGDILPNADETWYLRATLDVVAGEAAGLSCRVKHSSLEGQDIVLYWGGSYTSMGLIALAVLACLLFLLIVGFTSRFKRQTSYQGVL

[2] = target: T2, Human CD1d/β2M (human, UniProt P15813 20-301; P61769 21-119); assay: SPR, Protein A purified IgG
T2 construct: also called hCD1d; recombinant human CD1d

[3] = target: T1, Human CD1d on cells; assay: cell-based or functional assay; remark: listed apart in the source
[4] = target: T1, Human CD1d on cells; assay: cell-based or functional assay; remark: listed apart in the source
[5] = target: T1, Human CD1d on cells; assay: cell-based or functional assay; remark: listed apart in the source
[6] = target: T1, Human CD1d on cells; assay: cell-based or functional assay; remark: listed apart in the source
[7] = target: T1, Human CD1d on cells; assay: cell-based or functional assay; remark: listed apart in the source
[8] = target: T1, Human CD1d on cells; assay: cell-based or functional assay; remark: listed apart in the source
[9] = target: T1, Human CD1d on cells; assay: cell-based or functional assay; remark: listed apart in the source
[10] = target: T1, Human CD1d on cells; assay: cell-based or functional assay; remark: listed apart in the source
[11] = target: T1, Human CD1d on cells; assay: cell-based or functional assay; remark: listed apart in the source
[12] = target: T3, CD1d tetramer loaded with α-GalCer (ProImmune) (UniProt P15813 20-301, limits assumed); assay: flow cytometry, inhibition of CD1d tetramer (10 nM) binding to NKTCR on J.RT3-T3.5 cells
T3 construct: Bought reagent; also called fluorochrome-conjugated CD1d tetramer
T3 sequence (looked up): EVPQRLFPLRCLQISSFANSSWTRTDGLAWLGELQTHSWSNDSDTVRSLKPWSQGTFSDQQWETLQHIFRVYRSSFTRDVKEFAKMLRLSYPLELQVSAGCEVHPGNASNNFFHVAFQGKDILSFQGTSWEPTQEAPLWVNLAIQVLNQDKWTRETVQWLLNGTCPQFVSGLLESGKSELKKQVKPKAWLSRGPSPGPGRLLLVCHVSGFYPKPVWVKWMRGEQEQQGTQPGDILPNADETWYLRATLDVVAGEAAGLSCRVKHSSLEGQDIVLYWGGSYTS
Description: To perform the assay, antibodies were prepared at decreasing concentrations from 10 μg/mL in 0.1% bovine serum albumin (BSA) in cold 1×PBS at pH 7.4. […] Wash steps were done in 0.1% BSA in 1×PBS. Data were acquired by flow cytometry and analyzed using flow cytometry analysis software (FlowJo® Treestar, Inc.).

[13] = target: T1, Human CD1d on cells; assay: cell-based or functional assay; remark: listed apart in the source
[14] = target: T1, Human CD1d on cells; assay: cell-based or functional assay; remark: listed apart in the source
[15] = target: T1, Human CD1d on cells; assay: cell-based or functional assay; remark: listed apart in the source
[16] = target: T1, Human CD1d on cells; assay: cell-based or functional assay; remark: listed apart in the source
[17] = target: T2, Human CD1d/β2M; assay: SPR, transfection supernatant

- NKT IFN-γ EC50 (moDC) [1]: 25.9 ng/mL
- NKT IL-4 EC50 (moDC) [1]: 1.01 ng/mL
- Kd [2]: 0.344 nM
B1: 402.8.87 (antibody, IgG4, V domains shown)
VH: QVQLQESGPGLVKPSETLSLTCAVYGGSFSGYYWSWIRQPPGKGLEWIGEINHAGSTNYNPSLKSRVTISVDTSKNQFSLKLSSVTAADTAVYYCARGEIYDFYKSYMDVWGKGTTVTVSS
VL: QTVVTQEPSLTVSPGGTVTLTCASSSGAVSSGNFPNWFQQKPGQAPRALIFSASNKHSWTPARFSGSLLGGKAVLTLSGVQPEDEAEYYCLLYFGDTQLGVFGGGTKVTVLG
notes: IgG4 (S228P)

- NKT IFN-γ EC50 (moDC) [1]: 30.6 ng/mL
- NKT IL-4 EC50 (moDC) [1]: 0.593 ng/mL
- Kd [2]: 0.587 nM
- NKT IFN-γ EC50 (moDC) [3]: 0.516 ng/mL
- NKT IL-13 EC50 (moDC) [3]: 0.663 ng/mL
B2: 402.8.84 (antibody, IgG4, V domains shown)
VH: QVQLQESGPGLVKPSETLSLTCAVYGGSFSGYYWSWIRQPPGKGLEWIGEINHAGSTNYNPSLKSRVTISVDTSKNQFSLKLSSVTAADTAVYYCARGEIYDFYKSYLDVWGKGTTVTVSS
VL: QTVVTQEPSLTVSPGGTVTLTCASSSGAVSSGNFPNWFQQKPGQAPRALIFSASNKHSWTPARFSGSLLGGKAVLTLSGVQPEDEAEYYCLLYFGDTQLGVFGGGTKVTVLG
notes: IgG4 (S228P)

- IFN-γ EC50 (THP-1) [4]: 3.8 ng/mL
- IL-4 EC50 (THP-1) [4]: 1.9 ng/mL
- IL-5 EC50 (THP-1) [4]: 1.7 ng/mL
- IL-13 EC50 (THP-1) [4]: 2.5 ng/mL
- NKT IFN-γ EC50 (THP-1) [5]: 2.33 ng/mL
- NKT IFN-γ EC50 (moDC) [5]: 23.5 ng/mL
- NKT IL-4 EC50 (THP-1) [5]: 1.36 ng/mL
- NKT IL-4 EC50 (moDC) [5]: 12.8 ng/mL
- NKT IL-13 EC50 (THP-1) [5]: 3.29 ng/mL
- NKT IFN-γ EC50 (THP-1) [6]: 3.75 ng/mL
- NKT IFN-γ EC50 (moDC) [6]: 0.857 ng/mL
- IL-2 release EC50 (U-937 + NKTCR cell line) [7]: 5.3 ng/mL
- IFN-γ EC50 (C24:1 βGluCer, moDC) [8]: 2.38 ng/mL
- IL-4 EC50 (C24:1 βGluCer, moDC) [8]: 1.45 ng/mL
- IL-5 EC50 (C24:1 βGluCer, moDC) [8]: 1.23 ng/mL
- IL-13 EC50 (C24:1 βGluCer, moDC) [8]: 5.55 ng/mL
- TNF-α EC50 (C24:1 βGluCer, moDC) [8]: 1.79 ng/mL
- IFN-γ EC50 (primary CD14+ cells) [9]: 6.8 ng/mL
- IL-4 EC50 (primary CD14+ cells) [9]: 5.9 ng/mL
- IL-5 EC50 (primary CD14+ cells) [9]: 6.2 ng/mL
- IL-13 EC50 (primary CD14+ cells) [9]: 12.1 ng/mL
- NKT IFN-γ EC50 (moDC) [10]: 39.4 ng/mL
- NKT IL-4 EC50 (moDC) [10]: 17.3 ng/mL
- NKT IL-5 EC50 (moDC) [10]: 47.5 ng/mL
- NKT IL-13 EC50 (moDC) [10]: 83.1 ng/mL
- NKT TNF EC50 (moDC) [10]: 16.9 ng/mL
- NKT IFN-γ EC50 (moDC) [11]: 12.4 ng/mL
- NKT IL-4 EC50 (moDC) [11]: 1.98 ng/mL
- NKT IL-5 EC50 (moDC) [11]: 2.25 ng/mL
- NKT IL-13 EC50 (moDC) [11]: 2.36 ng/mL
- EC50 [12]: 284 ng/mL
- NKT IFN-γ EC50 (THP-1) [13]: 55.2 ng/mL
- NKT IL-4 EC50 (THP-1) [13]: 2.98 ng/mL
- NKT IL-5 EC50 (THP-1) [13]: 6.96 ng/mL
- NKT IL-13 EC50 (THP-1) [13]: 27.2 ng/mL
- NKT TNF EC50 (THP-1) [13]: 9.18 ng/mL
- NKT IFN-γ EC50 (THP-1) [14]: 3.75 ng/mL
- NKT IFN-γ EC50 (moDC) [14]: 0.857 ng/mL
- NKT IL-4 EC50 (THP-1) [14]: 2.88 ng/mL
- NKT IL-4 EC50 (moDC) [14]: 6.86 ng/mL
- fold potency against 51.1, IL-2 release [15]: ~15 fold
- fold potency against antibody 42 (C24:1 βGluCer) [15]: ≤ 58 fold
- fold potency against antibody 42 (THP-1 assay) [15]: ≤ 114 fold
- fold potency against antibody 42 (moDC assay) [15]: ≤ 200 fold
- fold potency against antibody 42, IL-2 release [15]: ~20 fold
- fold potency against antibody 51.1 (C24:1 βGluCer) [15]: ≤ 47 fold
- NKT IL-4 EC50 (moDC) [16]: 7.63 ng/mL and 6.54 ng/mL
- NKT IL-13 EC50 (moDC) [16]: 22.8 ng/mL and 19.6 ng/mL
B3: 401.11 (antibody, V domains shown)
VH: QVQLVGSGGGLVKPGRSLRLSCAASGFTFDDYAMHWVRQAPGKGLEWVATIIWNSAIIGYADSVKGRFIVSRDNAKNSLYLQMNSLRAEDMALYYCAKDMCSSSGCPDGYFDSWGQGTLVTVSS
VL: DIQMTQSPSSVSASVGDRVTITCRASQHISSWLAWYQQKPGKAPNLLIYAASSLQSGVSSRFSGSGSGTDFTLTISSLQPEDFATYYCQQANRFPLTFGGGTKLEIKR

- Kd [17]: 0.855 nM
- NKT IFN-γ EC50 (THP-1) [6]: 3.25 ng/mL
- NKT IFN-γ EC50 (moDC) [6]: 1.3 ng/mL
B4: 401.11.26 (antibody, IgG4, V domains shown)
VH: EVQLVESGGGLVQPGRSLRLSCAASGFTFDDYAMHWVRQAPGKGLEWVATIIWNSAIIGYADSVKGRFIVSRDNAKNSLYLQMNSLRAEDMALYYCAKDMCSSSGCPDGYFDSWGQGTLVTVSS
VL: DIQMTQSPSSVSASVGDRVTITCRASQHISSWLAWYQQKPGKAPNLLIYAASSLQSGVPSRFSGSGSGTDFTLTISSLQPEDFATYYCQQANRFPLTFGGGTKLEIKR
notes: IgG4 (S228P)

- NKT IFN-γ EC50 (THP-1) [14]: 1.29 ng/mL
- NKT IFN-γ EC50 (moDC) [14]: 0.359 ng/mL
- NKT IL-4 EC50 (THP-1) [14]: 0.509 ng/mL
- NKT IL-4 EC50 (moDC) [14]: 1.74 ng/mL
B5: 401.11.86 (antibody, IgG4, V domains shown)
VH: QVQLVGSGGGLVKPGRSLRLSCAASGFTFDDYAMHWVRQAPGKGLEWVATIIWNSAIIGYADSVKGRFIVSRDNAKNSLYLQMNSLRAEDMALYYCAKDMCSSGGCPDGYFDSWGQGTLVTVSS
VL: DIQMTQSPSSVSASVGDRVTITCRASQHISSWLAWYQQKPGKAPNLLIYAASSLQSGVSSRFSGSGSGTDFTLTISSLQPEDFATYYCQQANRFPLTFGGGTKLEIKR

- Kd [17]: 0.644 nM
- NKT IFN-γ EC50 (THP-1) [6]: 4.26 ng/mL
- NKT IFN-γ EC50 (moDC) [6]: 0.36 ng/mL
B6: 401.11.24 (antibody, IgG4, V domains shown)
VH: QVQLVGSGGGLVKPGRSLRLSCAASGFTFDDYAMHWVRQAPGKGLEWVATIIWNSAIIGYADSVKGRFIVSRDNAKNSLYLQMNSLRAEDTALYYCAKDMCSSSGCPDGYFDSWGQGTLVTVSS
VL: DIQMTQSPSSVSASVGDRVTITCRASQHISSWLAWYQQKPGKAPKLLIYAASSLQSGVSSRFSGSGSGTDFTLTISSLQPEDFATYYCQQANRFPLTFGGGTKLEIKR
notes: IgG4 (S228P)
